Biological target: dynamin 2-K562E (baculovirus) (rat)
Assay: not stated; polymerization of recombinant (baculovirus) dynamin 2 with or without Bis-T-23; method in Supplementary Figures S2E, F

Q: How did the fold increase of polymerization with Bis-T-23 against without Bis-T-23 turn out when dynamin 2-K562E (baculovirus) (enzyme) was run?
A: The fold increase of polymerization with Bis-T-23 against without Bis-T-23 was 3.5 times.

Reference: PMC9127447
